Experiments:
[1] = target: chimeric selectin L2P3L (human) (UniProt P16109)
[2] = target: chimeric selectin L2P (human) (UniProt P16109)

## LAM1-3 mAb (antibody)
[1]
  lymphocytes bound/HEV (lymphocytes bound/HEV): 0.08
[2]
  lymphocytes bound/HEV (lymphocytes bound/HEV): 0.074
L-selectin (human)
  lymphocytes bound/HEV (lymphocytes bound/HEV): 0.05
